# According to patent US20180155451A1 (published 2018):
# T1: FcγRIIa R (human, UniProt P12318 34-217)
# T1 construct: extracellular domain; also called FcgRIIa R type; 2aR
# T1 sequence (looked up): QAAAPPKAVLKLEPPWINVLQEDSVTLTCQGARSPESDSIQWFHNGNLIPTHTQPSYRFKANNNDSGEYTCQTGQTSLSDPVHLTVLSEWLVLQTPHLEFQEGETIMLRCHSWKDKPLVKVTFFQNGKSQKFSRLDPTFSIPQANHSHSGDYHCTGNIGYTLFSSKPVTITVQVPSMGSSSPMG
# T2: FcγRIIb (human, UniProt P31994 43-217)
# T2 construct: extracellular domain; also called FcgRIIb; 2b
# T2 sequence (looked up): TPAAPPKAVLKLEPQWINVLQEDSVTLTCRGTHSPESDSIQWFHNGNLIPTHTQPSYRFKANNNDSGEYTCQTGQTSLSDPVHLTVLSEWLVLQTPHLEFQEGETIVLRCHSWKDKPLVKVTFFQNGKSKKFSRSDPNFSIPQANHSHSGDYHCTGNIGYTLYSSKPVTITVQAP
# How the values were obtained:
# FcγRIIa R [1] = biological target: T1, FcγRIIa R; experiment: SPR; He/Con_2aR divided by He/Con_2b (FcγRIIb as reference)
# Description: (§1) The heterodimerized antibodies He Abs in which one of the H chains was introduced with an alteration were assayed for their binding activities to each activating FcγR and inhibitory FcγR according to the method described in Example 4. […] The activating FcγRs in FIGS. 26, 27, 28, and 29 are FcγRIa, FcγRIIa (R), FcγRIIa (H), and FcγRIIIa, respectively.
# (§2) Analysis of interaction between objective antibody and the FcγR was carried out using Biacore T100 (GE Healthcare). HBS-EP+ (GE Healthcare) was used as the running buffer, and the measurement temperature was set to 25° C. Chips produced by immobilizing the antigen peptide by the amine coupling method to a Series S Sencor Chip CM5 (GE Healthcare), or alternatively, chips produced by allowing preliminarily biotinylated antigen peptides to interact with and immobilize onto a Series S Sensor Chip SA (certified) (GE Healthcare) were used. Antibodies of interest were captured onto an antigen peptide-immobilized chip, and allowed to interact to each FcγR diluted with running buffer. To regenerate and repeatedly use the chip, the antibodies captured on the chip were washed off by reacting 10 mM glycine-HCl, pH 1.5.
# FcγRIIa R [2] = biological target: T1, FcγRIIa R; experiment: SPR (Biacore), antibody captured, FcγR as analyte; relative binding
# Description: as §1, §2
# FcγRIIb = biological target: T2, FcγRIIb; experiment: as above
# Description: as §1, §2
IIaR/IIb (He_2aR/2b) (FcγRIIa R [1]),He/Con_2aR (IIaR binding) (FcγRIIa R [2]),He/Con_2b (IIb binding) (FcγRIIb),Binder
1.3 ratio,58.8 % of GpH7-A5/GpH7-B3/GpL16-k0 (=100),45.1 % of GpH7-A5/GpH7-B3/GpL16-k0 (=100),"GpH7-A5/GpH7-B3 variant E269_03V/GpL16-k0 (antibody, human IgG1, kappa, heterodimerized antibody, mutation in the GpH7-B3 chain only; also called He Ab) heavy 1: not shown heavy 2: not shown light: DIVMTQSPLSLPVTPGEPASISCQASESLVHSNRNTYLHWYLQKPGQSPQLLIYKVSNRFSGVPDRFSGSGSGTDFTLKISRVEAEDVGVYYCSQNTHVPPTFGQGTKVEIERTVAAPSVFIFPPSDEQLKSGTASVVCLLNNFYPREAKVQWKVDNALQSGNSQESVTEQDSKDSTYSLSSTLTLSKADYEKHKVYACEVTHQGLSSPVTKSFNRGEC"
1.32 ratio,61.7 % of GpH7-A5/GpH7-B3/GpL16-k0 (=100),46.7 % of GpH7-A5/GpH7-B3/GpL16-k0 (=100),"GpH7-A5/GpH7-B3 variant E269_06M/GpL16-k0 (antibody, human IgG1, kappa, heterodimerized antibody, mutation in the GpH7-B3 chain only; also called He Ab) heavy 1: not shown heavy 2: not shown light: DIVMTQSPLSLPVTPGEPASISCQASESLVHSNRNTYLHWYLQKPGQSPQLLIYKVSNRFSGVPDRFSGSGSGTDFTLKISRVEAEDVGVYYCSQNTHVPPTFGQGTKVEIERTVAAPSVFIFPPSDEQLKSGTASVVCLLNNFYPREAKVQWKVDNALQSGNSQESVTEQDSKDSTYSLSSTLTLSKADYEKHKVYACEVTHQGLSSPVTKSFNRGEC"
2.14 ratio,38.1 % of GpH7-A5/GpH7-B3/GpL16-k0 (=100),17.8 % of GpH7-A5/GpH7-B3/GpL16-k0 (=100),"GpH7-A5/GpH7-B3 variant E269_11K/GpL16-k0 (antibody, human IgG1, kappa, heterodimerized antibody, mutation in the GpH7-B3 chain only; also called He Ab) heavy 1: not shown heavy 2: not shown light: DIVMTQSPLSLPVTPGEPASISCQASESLVHSNRNTYLHWYLQKPGQSPQLLIYKVSNRFSGVPDRFSGSGSGTDFTLKISRVEAEDVGVYYCSQNTHVPPTFGQGTKVEIERTVAAPSVFIFPPSDEQLKSGTASVVCLLNNFYPREAKVQWKVDNALQSGNSQESVTEQDSKDSTYSLSSTLTLSKADYEKHKVYACEVTHQGLSSPVTKSFNRGEC"
1.34 ratio,58.8 % of GpH7-A5/GpH7-B3/GpL16-k0 (=100),43.9 % of GpH7-A5/GpH7-B3/GpL16-k0 (=100),"GpH7-A5/GpH7-B3 variant E269_07I/GpL16-k0 (antibody, human IgG1, kappa, heterodimerized antibody, mutation in the GpH7-B3 chain only; also called He Ab) heavy 1: not shown heavy 2: not shown light: DIVMTQSPLSLPVTPGEPASISCQASESLVHSNRNTYLHWYLQKPGQSPQLLIYKVSNRFSGVPDRFSGSGSGTDFTLKISRVEAEDVGVYYCSQNTHVPPTFGQGTKVEIERTVAAPSVFIFPPSDEQLKSGTASVVCLLNNFYPREAKVQWKVDNALQSGNSQESVTEQDSKDSTYSLSSTLTLSKADYEKHKVYACEVTHQGLSSPVTKSFNRGEC"
1.32 ratio,50.7 % of GpH7-A5/GpH7-B3/GpL16-k0 (=100),38.5 % of GpH7-A5/GpH7-B3/GpL16-k0 (=100),"GpH7-A5/GpH7-B3 variant E269_16H/GpL16-k0 (antibody, human IgG1, kappa, heterodimerized antibody, mutation in the GpH7-B3 chain only; also called He Ab) heavy 1: not shown heavy 2: not shown light: DIVMTQSPLSLPVTPGEPASISCQASESLVHSNRNTYLHWYLQKPGQSPQLLIYKVSNRFSGVPDRFSGSGSGTDFTLKISRVEAEDVGVYYCSQNTHVPPTFGQGTKVEIERTVAAPSVFIFPPSDEQLKSGTASVVCLLNNFYPREAKVQWKVDNALQSGNSQESVTEQDSKDSTYSLSSTLTLSKADYEKHKVYACEVTHQGLSSPVTKSFNRGEC"
1.3 ratio,55.5 % of GpH7-A5/GpH7-B3/GpL16-k0 (=100),42.5 % of GpH7-A5/GpH7-B3/GpL16-k0 (=100),"GpH7-A5/GpH7-B3 variant E269_20W/GpL16-k0 (antibody, human IgG1, kappa, heterodimerized antibody, mutation in the GpH7-B3 chain only; also called He Ab) heavy 1: not shown heavy 2: not shown light: DIVMTQSPLSLPVTPGEPASISCQASESLVHSNRNTYLHWYLQKPGQSPQLLIYKVSNRFSGVPDRFSGSGSGTDFTLKISRVEAEDVGVYYCSQNTHVPPTFGQGTKVEIERTVAAPSVFIFPPSDEQLKSGTASVVCLLNNFYPREAKVQWKVDNALQSGNSQESVTEQDSKDSTYSLSSTLTLSKADYEKHKVYACEVTHQGLSSPVTKSFNRGEC"
1.29 ratio,58.2 % of GpH7-A5/GpH7-B3/GpL16-k0 (=100),45 % of GpH7-A5/GpH7-B3/GpL16-k0 (=100),"GpH7-A5/GpH7-B3 variant E269_04F/GpL16-k0 (antibody, human IgG1, kappa, heterodimerized antibody, mutation in the GpH7-B3 chain only; also called He Ab) heavy 1: not shown heavy 2: not shown light: DIVMTQSPLSLPVTPGEPASISCQASESLVHSNRNTYLHWYLQKPGQSPQLLIYKVSNRFSGVPDRFSGSGSGTDFTLKISRVEAEDVGVYYCSQNTHVPPTFGQGTKVEIERTVAAPSVFIFPPSDEQLKSGTASVVCLLNNFYPREAKVQWKVDNALQSGNSQESVTEQDSKDSTYSLSSTLTLSKADYEKHKVYACEVTHQGLSSPVTKSFNRGEC"
1.25 ratio,85 % of GpH7-A5/GpH7-B3/GpL16-k0 (=100),67.8 % of GpH7-A5/GpH7-B3/GpL16-k0 (=100),"GpH7-A5/GpH7-B3 variant H268_08L/GpL16-k0 (antibody, human IgG1, kappa, heterodimerized antibody, mutation in the GpH7-B3 chain only; also called He Ab) heavy 1: not shown heavy 2: not shown light: DIVMTQSPLSLPVTPGEPASISCQASESLVHSNRNTYLHWYLQKPGQSPQLLIYKVSNRFSGVPDRFSGSGSGTDFTLKISRVEAEDVGVYYCSQNTHVPPTFGQGTKVEIERTVAAPSVFIFPPSDEQLKSGTASVVCLLNNFYPREAKVQWKVDNALQSGNSQESVTEQDSKDSTYSLSSTLTLSKADYEKHKVYACEVTHQGLSSPVTKSFNRGEC"
